Laboratory results published in article PMC6460258.

How the values were obtained:
[1] = molecular target: GST-tagged Lcl (recombinant full length Lcl, 18 repeats) (Legionella pneumophila); assay: SPR; Biacore X100; […] (100 nM) […]
[2] = molecular target: His-tagged full length Lcl (Legionella collagen-like protein) with 18 repeats (Legionella pneumophila serogroup 1, strain LU1536); assay: SEC; […], PBS, 0.5 ml/min; […]

Substance | Kd [1] [nM] | stoichiometry N [2]
His-tagged Lcl lacking the collagenous repeat domain (Lcl[change]) (domain or fragment) | 1040 | –
His-tagged full length Lcl (Legionella collagen-like protein) with 18 repeats (natural protein) | 28.7 | 3
His-tagged Lcl lacking the C-terminal domain (Lcl[change]) (domain or fragment) | 123 | –
